Substrate in data set [1]: O=C(O)CCC(=O)C(=O)O
In words: purified protein, by the assay type. Particulars: 36° C.

Substrate in data set [2]: CC1(C)S[C@@H]2[C@H](NC(=O)CCC[C@@H](N)C(=O)O)C(=O)N2[C@H]1C(=O)O
In words: Kinetics of recombinant enzyme (Lineweaver-Burk). Particulars: other: recombinant enzyme, pH 7.0, 50 mM HEPES buffer, 36° C. It is filed as biochemical, Streptomyces clavuligerus.

Substrate in data set [3]: CC1(C)S[C@@H]2[C@H](NC(=O)CCC[C@@H](N)C(=O)O)C(=O)N2[C@H]1C(=O)O
Nature of the data set: Kinetics of native synthase, partially purified (Mono Q eluate). It is filed as biochemical, Streptomyces clavuligerus. The note with it: other: native partially purified enzyme, Tris-HCl buffer, 36° C., pH 7.0.

B1: recombinantly produced DAOC synthase (Streptomyces clavuligerus) (protein)
chain: MDTTVPTFSLAELQQGLHQDEFRRCLRDKGLFYLTDCGLTDTELKSAKDLVIDFFEHGSEAEKRAVTSPVPTMRRGFTGLESESTAQITNTGSYSDYSMCYSMGTADNLFPSGDFERIWTQYFDRQYTASRAVAREVLRATGTEPDGGVEAFLDCEPLLRFRYFPQVPEHRSAEEQPLRMAPHYDLSMVTLIQQTPCANGFVSLQAEVGGAFTDLPYRPDAVLVFCGAIATLVTGGQVKAPRHHVAAPRRDQIAGSSRTSSVFFLRPNADFTFSVPLARECGFDVSLDGETATFQDWIGGNYVNIRRTSKA
notes: made in house; host or cells: Escherichia coli K12 JM109 (plasmid pOW382)
As for B1, the Km in data set [1] (other: recombinant enzyme, pH 7.0, 50 mM HEPES buffer) was 18 µM; in data set [2], 29 µM.

B2: native synthase (Streptomyces clavuligerus) (protein)
chain: B1 chain
notes: native synthase, evaluated with the partially purified enzyme; endogenous in cells; host or cells: Streptomyces clavuligerus cells, crude extract, three-step purification (Mono Q eluate)
Turning to B2, the Km is 22 µM in data set [1] (other: native partially purified enzyme, Tris-HCl buffer, pH 7.0) and 35 µM in data set [3].

(Values after patent US5082772A, “Process for preparing deacetylcephalosporin C” (priority 1988, dated 1992).)
